Experimental data taken from paper PMC10889005.

Biological target: KPNA4 (UniProt O00629)
Experiment: pull-down/IP from co-transfected cells
Conditions: reference: IRF3 wild type; sites S97

With IRF3 (from UniProt Q14653) IRF3 S97A the “binding against the reference” value was “stronger”.
